Reference: publication PMC5384396 (Oncoimmunology, 2017)

What was measured:
[1] = target: T1, hGITR on hGITR-transfected Jurkat cells (human, UniProt Q9Y5U5 26-241); assay: cell-based or functional assay
T1 sequence: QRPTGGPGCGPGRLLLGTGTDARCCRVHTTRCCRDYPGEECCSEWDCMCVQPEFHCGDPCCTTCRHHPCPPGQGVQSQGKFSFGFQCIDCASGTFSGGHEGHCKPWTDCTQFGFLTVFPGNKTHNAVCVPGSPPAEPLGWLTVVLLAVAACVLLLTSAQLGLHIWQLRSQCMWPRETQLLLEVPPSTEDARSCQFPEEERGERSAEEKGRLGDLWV

[2] = target: the molecule itself

B1: hGITRL FP with the yeast GCN4 pII trimerization domain (Fc fusion)
chain: not shown
NFκB-luciferase reporter in hGITR-transfected Jurkat cells, agonism EC50 [1]: 0.89 nM | stoichiometry N [2]: 6
